From article PMC3441633 (PLoS ONE, 2012)

Target: T1, Ras (aa 1-166), bacterially expressed and purified (H-Ras) (UniProt P01112 1-166)
T1 construct: H-Ras aa 1-166 (all Ras constructs were the H-Ras isoform); Used loaded with GDP, loaded with GTPγS, or nucleotide-free (incubated with EDTA without added nucleotide); the nucleotide state is told by the assay; also called Ras 1-166; Ras-GDP; source: E. coli BL21 (pQlink Ras 1-166), purified on nickel beads, His tag cleaved with TEV protease
Assay: pull-down; nucleotide-free Ras: 250 nM Ras with 850 nM GST protein on glutathione beads in Loading Buffer (15 mM EDTA, 5 mM MgCl2), 30 min at 30°C, no added nucleotide
Conditions: both partners purified

B1: GST-PI3KC2β-RBD (aa 368-463) (domain or fragment, UniProt O00750 368-463, looked up)
chain: SPEHLGDEVNLKVTVLCDRLQEALTFTCNCSSTVDLLIYQTLCYTHDDLRNVDVGDFVLKPCGLEEFLQNKHALGSHEYIQYCRKFDIDIRLQLME
notes: also called RBD of PI3KC2β; source: E. coli BL21 (DE3), purified on Glutathione Sepharose beads
- binding result: binds
